Publication PMC3458930

How the values were obtained:
caspase-7 = caspase-7 (UniProt P55210); test: co-immunoprecipitation, Flag-tagged αB-crystallin; settings: reference: wild type; sites S45
caspase-3 = caspase-3 (UniProt P42574); test: co-immunoprecipitation, Flag-tagged αB-crystallin; settings: reference: wild type; sites S45

binding against the reference (caspase-7): weaker
binding against the reference (caspase-3): weaker
Substance: αB-crystallin (from UniProt P02511) S45A
